Source: the supplement of paper PMC10567573

B1: CPXM2 (parent)
chain: TASTKNCMVGYDMGATRCDFTLSK
B2: GMCL1 (parent)
chain: RPDTGDDAAGHGFCYCAGSHKRKR

Variants of: B1
Test: protein stability index of a GFP-peptide fusion (GPS, HEK-293T) (PSI 1-6); higher = more stable
Details: c terminus: a fixed tail appended
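Note: lentivirally expressed fusions sorted by FACS into six bins by GFP to DsRed ratio, PSI derived from sequencing read proportions per bin multiplied by bin number.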

Variant | protein stability index
TASTKNCMVGYDMGATRCDFMLSK | 1.95
TASTKNCMVGYDMGATRCDFVLSK | 2.48
TASTKNCMVGYDMGATRCDFQLSK | 3.15
TASTKNCMVGYDMGATRCDFLLSK | 2.52
TASTKNCMVGYDMGATRCDFPLSK | 2.71
TASTKNCMVGYDMGATRCDFRLSK | 2.89
TASTKNCMVGYDMGATRCDFWLSK | 1.67
TASTKNCMVGYDMGATRCDFSLSK | 2.21
TASTKNCMVGYDMGATRCDFNLSK | 3.06
TASTKNCMVGYDMGATRCDFYLSK | 1.91
TASTKNCMVGYDMGATRCDFKLSK | 3.35
TASTKNCMVGYDMGATRCDFTLSY | 2.73
TASTKNCMVGYDMGATRCDFTLSI | 3.76
TASTKNCMVGYDMGATRCDFTLSV | 2.78
TASTKNCMVGYDMGATRCDFTLST | 1.62
TASTKNCMVGYDMGATRCDFTLSD | 2.37
TASTKNCMVGYDMGATRCDFTLSC | 2.38
TASTKNCMVGYDMGATRCDFTLSN | 2.03
TASTKNCMVGYDMGATRCDFTLSF | 4.01
TASTKNCMVGYDMGATRCDFTLSH | 2.87
TASTKNCMVGYDMGATRCDFTLSE | 2.62
TASTKNCMVGYDMGATRCDFTLSR | 1.56
TASTKNCMVGYDMGATRCDFTLSA | 2.43

Variant | protein stability index
TASTKNCMVGYDMGATRCDFTLSL | 1.52
TASTKNCMVGYDMGATRCDFTLSM | 2.85
TASTKNCMVGYDMGATRCDFTLSQ | 1.82
TASTKNCMVGYDMGATRCDFTLSP | 2.35
TASTKNCMVGYDMGATRCDFTLSS | 2.22
TASTKNCMVGYDMGATRCDFTLSG | 1.78
TASTKNCMVGYDMGATRCDFTLGK | 2.45
TASTKNCMVGYDMGATRCDFTLWK | 1.86
TASTKNCMVGYDMGATRCDFTLHK | 2.2
TASTKNCMVGYDMGATRCDFTLDK | 2.55
TASTKNCMVGYDMGATRCDFTLYK | 2.01
TASTKNCMVGYDMGATRCDFTLPK | 2.59
TASTKNCMVGYDMGATRCDFTLTK | 1.94
TASTKNCMVGYDMGATRCDFTLLK | 2.67
TASTKNCMVGYDMGATRCDFTLEK | 2.45
TASTKNCMVGYDMGATRCDFTLFK | 1.55
TASTKNCMVGYDMGATRCDFTLVK | 2.3
TASTKNCMVGYDMGATRCDFTLAK | 3.47
TASTKNCMVGYDMGATRCDFTLIK | 1.89
TASTKNCMVGYDMGATRCDFTLRK | 3.34
TASTKNCMVGYDMGATRCDFTLNK | 2.6
TASTKNCMVGYDMGATRCDFTLKK | 2.78
TASTKNCMVGYDMGATRCDFTLCK | 1.46

Variant | protein stability index
TASTKNCMVGYDMGATRCDFTLQK | 2.26
TASTKNCMVGYDMGATRCDFTLMK | 2
TASTKNCMVGYDMGATRCDFTDSK | 3.58
TASTKNCMVGYDMGATRCDFTMSK | 2.39
TASTKNCMVGYDMGATRCDFTYSK | 2.26
TASTKNCMVGYDMGATRCDFTHSK | 3.06
TASTKNCMVGYDMGATRCDFTISK | 1.88
TASTKNCMVGYDMGATRCDFTNSK | 3.41
TASTKNCMVGYDMGATRCDFTKSK | 3.36
TASTKNCMVGYDMGATRCDFTPSK | 2.48
TASTKNCMVGYDMGATRCDFTCSK | 2.42
TASTKNCMVGYDMGATRCDFTASK | 2.64
TASTKNCMVGYDMGATRCDFTRSK | 2.35
TASTKNCMVGYDMGATRCDFTFSK | 2.12
TASTKNCMVGYDMGATRCDFTGSK | 3.48
TASTKNCMVGYDMGATRCDFTVSK | 2.52
TASTKNCMVGYDMGATRCDFTESK | 3.07
TASTKNCMVGYDMGATRCDFTQSK | 2.96
TASTKNCMVGYDMGATRCDFTTSK | 3.23
TASTKNCMVGYDMGATRCDFTWSK | 1.74
TASTKNCMVGYDMGATRCDFTSSK | 2.41

Variants of: B2
Test: as above
Details: c terminus: a fixed tail appended

Variant | protein stability index
IPDTGDDAAGHGFCYCAGSHKRKR | 2.34
QPDTGDDAAGHGFCYCAGSHKRKR | 2.98
WPDTGDDAAGHGFCYCAGSHKRKR | 3.2
MPDTGDDAAGHGFCYCAGSHKRKR | 3.16
TPDTGDDAAGHGFCYCAGSHKRKR | 2.97
CPDTGDDAAGHGFCYCAGSHKRKR | 2.99
NPDTGDDAAGHGFCYCAGSHKRKR | 2.83
DPDTGDDAAGHGFCYCAGSHKRKR | 2.92
GPDTGDDAAGHGFCYCAGSHKRKR | 3.97
VPDTGDDAAGHGFCYCAGSHKRKR | 2.5
PPDTGDDAAGHGFCYCAGSHKRKR | 2.71
FPDTGDDAAGHGFCYCAGSHKRKR | 1.76
YPDTGDDAAGHGFCYCAGSHKRKR | 2
APDTGDDAAGHGFCYCAGSHKRKR | 2.89
HPDTGDDAAGHGFCYCAGSHKRKR | 3.08
LPDTGDDAAGHGFCYCAGSHKRKR | 3.2
KPDTGDDAAGHGFCYCAGSHKRKR | 2.99
SPDTGDDAAGHGFCYCAGSHKRKR | 2.96
EPDTGDDAAGHGFCYCAGSHKRKR | 2.84
RPLTGDDAAGHGFCYCAGSHKRKR | 3.14
RPGTGDDAAGHGFCYCAGSHKRKR | 2.19
RPRTGDDAAGHGFCYCAGSHKRKR | 3.19
RPITGDDAAGHGFCYCAGSHKRKR | 3.29
RPPTGDDAAGHGFCYCAGSHKRKR | 3.64
RPETGDDAAGHGFCYCAGSHKRKR | 2.41
RPKTGDDAAGHGFCYCAGSHKRKR | 3.62
RPQTGDDAAGHGFCYCAGSHKRKR | 2.51
